Results published in publication PMC6635409.
Values joined by “and” are separate entries in the source; they are usually repeats but may differ in a detail not shown here. Equal values may be shown once.

Target: nicotinic acetylcholine receptor subunit α9 (CHRNA9) (human (endogenous in BT474, MDA-MB-231, A549, RT4, MIA PaCa-2 and clinical breast tumors)) (UniProt Q9UGM1)
Assay: co-IP; endogenous proteins in MDA-MB-231 cells; reciprocal IPs, 1% NP40 lysis buffer, Protein G beads; IP ratio (IPR) against input, threshold >3% in both

Sequence of UniProt Q9UGM1 (Q9UGM1 23-479): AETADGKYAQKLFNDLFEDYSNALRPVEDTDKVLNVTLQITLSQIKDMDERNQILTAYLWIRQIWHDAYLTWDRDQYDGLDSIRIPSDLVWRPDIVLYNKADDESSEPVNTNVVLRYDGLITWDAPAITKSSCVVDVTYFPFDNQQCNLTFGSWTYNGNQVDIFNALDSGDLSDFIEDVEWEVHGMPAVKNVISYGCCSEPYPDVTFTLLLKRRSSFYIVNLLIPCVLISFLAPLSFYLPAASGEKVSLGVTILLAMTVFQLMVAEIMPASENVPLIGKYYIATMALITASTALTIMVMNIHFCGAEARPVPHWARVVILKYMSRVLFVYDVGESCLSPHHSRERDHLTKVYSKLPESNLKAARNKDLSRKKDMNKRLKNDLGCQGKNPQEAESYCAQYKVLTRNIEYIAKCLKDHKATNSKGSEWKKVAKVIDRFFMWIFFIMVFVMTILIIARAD

IP ratio (IPR): 3.05% and 25.1%
Substance: ABCB1 (from UniProt P08183 1-1280) (natural protein)
